Test results reported in paper PMC10620092, “Structure and electromechanical coupling of a voltage-gated Na^+/H^+ exchanger” (Nature, 2023).

Target: the molecule itself
Test: cryo-EM structure; 3 mg/ml SLC9C1 in GDN detergent (50 mM Tris-HCl pH 7.5, 150 mM NaCl, 0.02% GDN); C2 symmetry, symmetry expansion and masked refinement for the VSDs

B1: Strongylocentrotus purpuratus (sea urchin) SLC9C1, full length, GFP-TwinStrep tag removed by TEV (natural protein, UniProt A3RL54 30-1325, looked up)
chain: SSGGSGHTPTTQATHADDHDLTTHNGTEEHDDGHDDGHDDLHAHAPKVIVFISGSCLFGAISRSLFKKLPIPYTVVLLILGAILGVVASNVPLVEEHTRDVAHMDPHVLLQIFLPVLIFESAFAMDVHTFMRSFSQVCILALFGLVVASVLTAVLAMNLFNYNWNFSEAMMFGAIMSATDPVAVVALLKDLGASKQLGTIIEGESLLNDGCAIVIFNVFMKMVFFPQLTSTVGQNVLYFLQVAVAGPLWGYAVAKVTVFFLSHIFNDALVEITITLAATYLTYYIGDIWLEVSGVLAVVVLGLIVNAEKTSISPEVEVFLHRFWEMLAYLANTLIFMMVGVVVTQKALVAVDKMDWFYLIILYLAITIIRGMVISLFSPILSRIGYGLTWRNAVIMTWGGLRGAVGLALALVVENLAGNDVIGSKFLFHTAGIVVLTLVINATTIQTLLRILGMSDISIPKRLAMAGAVRRIHEGQNRTLNMLKSDRFLADADWDIATAACEISDPYSALSDDENAPADELTLGERKSVCPGCKAMVPNEPSPREFADMMEEARLRMLKAEKISYWKQFEHGMLAREALRLLVQHAEVAADEKDQFILVDDLKKSWQIKGIYPWLKRKLEDLISEKKIAAIPMPKYKLGKLMYKICHHMAFEVTINIAIVLNIVPIIMEFVVQDKMASVSTMAAPGSTVSSEPSSLQKIEDALRISNYVFFVIYAIEAIVKILGLGRHYIVSHWNKFDAFILVVALVDIIIAETLLKGSITINLSSIKVVKLFRLLRGLRMLRLTKALIPKLILVVNGKINNQLSLGYDVGKGYIIGEEEVGKIIDRMVDNKKILRELKHISETGRLQVVKELGLLQREHPGIAVSVKTRQAIRTILNHSRETIHELQGAGLLDEMEAHKLELTVEIKMKRLMNAPSSIPPPPPENLLKNVSWLAGDMKLIDFIKARASLLHFDYGEVIVREGDESDGLFLIVSGLVKLYGKSAFLDHDNPPVTAGSEENEVFEDYLTVGNVIGEMGVLTKKPRNATVTCETTVQVYFITAEDMNIAIDTFTLYPSLEYRLWRVVAIRIATPLIMEQMAFQGWTQEKVKLHLERGYLVDLAESHFQFNIDATLEDVILINGTAYNAHTREEIRSPCLISRTVHKLTFQYTATEEPRLFVVRNAEYNGPILDGRLDVDSKRSLISITEISSNMCLKHAAELRQKNSKVMLSRKSSGAAAKEEEDCIPNTSDVEQAAGVSPSVPTKTTPKPKSFLPSLGLSMSKERVNGEAVEESPVKTKQGEETPETEEGAAPRVNV
notes: synthesised gene in pcDNA3.1(+); A TEV recognition site follows the protein; what is left of it after cleavage stays at the C terminus; also called sperm-specific Na+/H+ exchanger SLC9C1; SLC9C1(WT); source: for one sample further reconstituted into MSP1E2 nanodiscs with yeast polar lipids; not shown: eGFP, C-terminal, cleaved; TwinStrep, C-terminal, cleaved; His8, C-terminal, cleaved
stoichiometry N: 2
